According to IntAct's records for PubMed 14685270:

B1: Eukaryotic translation initiation factor 4E1 (Drosophila melanogaster (Fruit fly)), P48598 (parent)
chain: MQSDFHRMKNFANPKSMFKTSAPSTEQGRPEPPTSAAAPAEAKDVKPKEDPQETGEPAGNTATTTAPAGDDAVRTEHLYKHPLMNVWTLWYLENDRSKSWEDMQNEITSFDTVEDFWSLYNHIKPPSEIKLGSDYSLFKKNIRPMWEDAANKQGGRWVITLNKSSKTDLDNLWLDVLLCLIGEAFDHSDQICGAVINIRGKSNKISIWTADGNNEEAALEIGHKLRDALRLGRNNSLQYQLHKDTMVKQGSNVKSIYTL
partner: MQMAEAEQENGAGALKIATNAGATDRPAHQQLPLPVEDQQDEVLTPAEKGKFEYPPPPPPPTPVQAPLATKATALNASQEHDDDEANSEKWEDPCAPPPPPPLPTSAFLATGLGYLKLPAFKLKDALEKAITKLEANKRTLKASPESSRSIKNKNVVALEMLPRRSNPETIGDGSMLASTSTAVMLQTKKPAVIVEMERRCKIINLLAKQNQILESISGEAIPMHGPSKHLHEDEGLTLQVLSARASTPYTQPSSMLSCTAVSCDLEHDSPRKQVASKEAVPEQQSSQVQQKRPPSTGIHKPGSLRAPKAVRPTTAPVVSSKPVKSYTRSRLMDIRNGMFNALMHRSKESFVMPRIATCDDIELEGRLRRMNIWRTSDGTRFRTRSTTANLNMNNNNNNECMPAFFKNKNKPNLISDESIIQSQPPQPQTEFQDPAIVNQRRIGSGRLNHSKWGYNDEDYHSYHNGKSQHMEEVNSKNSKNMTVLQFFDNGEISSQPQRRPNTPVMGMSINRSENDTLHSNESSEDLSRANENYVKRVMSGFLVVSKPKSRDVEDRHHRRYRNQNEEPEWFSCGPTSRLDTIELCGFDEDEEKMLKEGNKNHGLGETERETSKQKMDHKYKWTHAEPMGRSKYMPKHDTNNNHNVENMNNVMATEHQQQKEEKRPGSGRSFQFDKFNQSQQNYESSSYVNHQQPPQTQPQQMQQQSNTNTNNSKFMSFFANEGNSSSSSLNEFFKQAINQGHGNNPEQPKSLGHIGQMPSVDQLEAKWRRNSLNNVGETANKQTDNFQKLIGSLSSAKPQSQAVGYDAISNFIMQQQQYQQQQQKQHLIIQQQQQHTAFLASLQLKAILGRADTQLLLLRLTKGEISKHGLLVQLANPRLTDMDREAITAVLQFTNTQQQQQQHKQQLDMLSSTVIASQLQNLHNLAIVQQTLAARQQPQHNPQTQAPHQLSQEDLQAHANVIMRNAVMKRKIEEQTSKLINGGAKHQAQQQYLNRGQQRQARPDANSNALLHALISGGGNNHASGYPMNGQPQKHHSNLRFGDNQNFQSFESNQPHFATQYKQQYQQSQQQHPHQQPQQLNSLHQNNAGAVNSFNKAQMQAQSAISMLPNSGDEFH
B2: Protein cup (Drosophila melanogaster (Fruit fly)), Q9VMA3 (parent)
chain: B1 partner
partner: B1 chain

Variants of: B1
Details: with cup_drome cup, Q9VMA3

Row | effect of a mutation on the interaction | Variant
1 | disrupting interaction | E106A

Variants of: B2
Details: with if4e_drome eIF4E1, P48598

Row | effect of a mutation on the interaction | Variant
2 | disrupting interaction | Y327A
3 | disrupting interaction | L364A;L368A

Variants of: B2
Details: with if4e_drome eIF4E1, P48598
Remark: another data set of the same source

Row | effect of a mutation on the interaction | Variant
4 | decreasing interaction | Y327A
5 | disrupting interaction | Y327A;L364A;L368A
